Results published in paper PMC5021340, “The Involvement of Mig1 from Xanthophyllomyces dendrorhous in Catabolic Repression: An Active Mechanism Contributing to the Regulation of Carotenoid Production”.

Target: Mig1 (Xanthophyllomyces dendrorhous, UniProt A0A1C9UL02 1-863)
Assay: EMSA; poly(dI-dC); 20 mM HEPES pH 7.9, 50 mM KCl, 1 mM DTT, 0.1 mM EDTA, 5% glycerol (+2.5%), 200 ug/ml BSA, 50 ng/ul poly(dI-dC), 0.05% NP-40, 20 fmol DNA, 10 ug Mig1 in 20 ul, room temperature 20 min
Conditions: protein: recombinant; (pET-TEV), removed by TEV protease; label: 5' biotin; blunt

Sequence of Mig1 (A0A1C9UL02 entry or part of it): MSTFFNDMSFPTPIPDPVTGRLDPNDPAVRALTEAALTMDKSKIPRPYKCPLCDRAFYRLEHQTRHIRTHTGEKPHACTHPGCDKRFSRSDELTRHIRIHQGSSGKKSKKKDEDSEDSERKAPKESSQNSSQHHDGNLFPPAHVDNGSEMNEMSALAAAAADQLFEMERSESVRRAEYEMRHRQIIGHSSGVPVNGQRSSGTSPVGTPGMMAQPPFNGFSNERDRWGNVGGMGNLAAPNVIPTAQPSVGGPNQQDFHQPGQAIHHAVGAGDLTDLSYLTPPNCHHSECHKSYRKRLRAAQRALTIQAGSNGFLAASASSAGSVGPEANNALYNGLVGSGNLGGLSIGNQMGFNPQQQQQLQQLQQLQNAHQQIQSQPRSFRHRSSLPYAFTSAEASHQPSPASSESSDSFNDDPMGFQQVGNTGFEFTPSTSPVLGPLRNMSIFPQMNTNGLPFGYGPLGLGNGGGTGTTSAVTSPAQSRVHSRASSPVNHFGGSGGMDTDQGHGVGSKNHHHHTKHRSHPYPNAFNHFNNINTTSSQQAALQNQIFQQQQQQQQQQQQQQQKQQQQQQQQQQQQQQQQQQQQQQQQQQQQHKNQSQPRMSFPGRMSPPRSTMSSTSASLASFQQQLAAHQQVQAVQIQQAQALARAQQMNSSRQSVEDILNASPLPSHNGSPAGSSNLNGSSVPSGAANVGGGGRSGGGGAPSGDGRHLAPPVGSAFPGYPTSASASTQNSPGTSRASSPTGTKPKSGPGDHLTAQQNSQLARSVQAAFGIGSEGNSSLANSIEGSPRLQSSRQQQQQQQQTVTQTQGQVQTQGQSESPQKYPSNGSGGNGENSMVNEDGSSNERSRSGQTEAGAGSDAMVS

B1: grg2 box A (-348) 54 bp (dsDNA)
DNA 1: GAGGTATATGCGTTCCGCGAACTGCGGAGATGTGACGTCACATCTCGTCACAGC
DNA 2: GCTGTGACGAGATGTGACGTCACATCTCCGCAGTTCGCGGAACGCATATACCTC
binding result: binds
